Test results as given in patent US20240158448A1, “MULTIVALENT NANO-'SELF' PEPTIDES AND USES THEREOF” (THE TRUSTEES OF THE UNIVERSITY OF PENNSYLVANIA, priority 2021, published 2024).

Biological target: human CD47 expressed on cells (red blood cells, K562 cells, THP-1 macrophages) (human) (UniProt Q08722)
Assay: cell-based or functional assay

B1: mouse anti-human CD47 antibody B6H12 (BD Biosciences) (antibody, from another filing, V domains shown)
VH: EVQLVESGGDLVKPGGSLKLSCAASGFTFSGYGMSWVRQTPDKRLEWVATITSGGTYTYYPDSVKGRFTISRDNAKNTLYLQIDSLKSEDTAIYFCARSLAGNAMDYWGQGTSVTVSS
VL: DIVMTQSPATLSVTPGDRVSLSCRASQTISDYLHWYQQKSHESPRLLIKFASQSISGIPSRFSGSGSGSDFTLSINSVEPEDVGVYYCQNGHGFPRTFGGGTKLEIK
B1 gave a % THP-1 macrophages phagocytosing opsonized RBCs of 30%.
